{"source": "paper PMC8980812", "about": "“Regulation of the activity of the bacterial histidine kinase PleC by the scaffolding protein PodJ” (The Journal of Biological Chemistry, 2022)", "key": {"PleC PAS AB-HK": {"target": "T1, PleC PAS AB-HK (Caulobacter crescentus)", "T1 sequence (P37894 whole entry, looked up)": "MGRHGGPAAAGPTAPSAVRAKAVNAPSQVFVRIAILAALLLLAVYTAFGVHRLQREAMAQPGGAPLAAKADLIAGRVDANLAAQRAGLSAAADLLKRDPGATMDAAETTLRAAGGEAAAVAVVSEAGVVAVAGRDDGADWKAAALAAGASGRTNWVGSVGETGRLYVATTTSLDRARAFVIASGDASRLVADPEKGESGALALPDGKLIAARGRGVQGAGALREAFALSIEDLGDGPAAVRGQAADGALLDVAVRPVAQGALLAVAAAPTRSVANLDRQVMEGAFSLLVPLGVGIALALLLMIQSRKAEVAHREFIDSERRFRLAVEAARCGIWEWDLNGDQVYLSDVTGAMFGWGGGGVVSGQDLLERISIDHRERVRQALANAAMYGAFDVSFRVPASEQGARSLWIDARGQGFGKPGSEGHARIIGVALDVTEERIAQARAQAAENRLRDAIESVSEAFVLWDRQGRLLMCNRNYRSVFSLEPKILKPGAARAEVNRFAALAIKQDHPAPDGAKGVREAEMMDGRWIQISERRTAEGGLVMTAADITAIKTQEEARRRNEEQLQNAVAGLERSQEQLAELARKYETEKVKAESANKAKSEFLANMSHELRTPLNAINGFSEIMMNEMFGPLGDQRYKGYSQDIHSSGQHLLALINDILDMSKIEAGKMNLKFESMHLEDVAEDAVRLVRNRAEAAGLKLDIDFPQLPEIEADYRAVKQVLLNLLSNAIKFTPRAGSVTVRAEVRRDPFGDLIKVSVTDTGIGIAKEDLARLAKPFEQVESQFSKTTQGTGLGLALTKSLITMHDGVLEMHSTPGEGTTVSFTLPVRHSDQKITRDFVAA", "test": "cell-based or functional assay"}, "[1]": {"target": "the molecule itself", "test": "SEC; 3.2 mg/ml His-PodJ(1–635), Superdex 200 10/300 GL, 50 mM Tris-HCl pH 8.0, 300 mM KCl"}}, "data": [{"binder": "His-PodJ(1–635) (domain or fragment, Caulobacter crescentus, UniProt Q9ZG88 1-635, looked up, PodJ, Caulobacter crescentus, cytoplasmic domains without the transmembrane tether, residues 1–635; also called cytoplasmic portion of PodJ; source: E. coli Rosetta (DE3), plasmid pwz091, purified (HisTrap HP)) MTAASPWSVKGIDPKAREVAKDLARRSGMTLGEWLNRMIIEGDGQTADPRLAGDDVPNRAYLEIVKDDAPPRIEIAEHPADEVGRVALALDRLTQRIEAAEGRNAAAITGIDHSVRDALTRLGASEREQIAVAARFEGAVDELKTEQARATERLRRIESEAAGPRSAEALRALEGALGKVAGHLYEGEARTREAIATLEAKLNQQSSGDPSALVEAVVARLGERLEAAETRTSDALRELGASFQALDQRLGAVETANPATGVQEGLDSLAATLTQKMEAARLEMAAKLRESADGRFDRMERKLGEMAAHVQAAEQRSAQAIERMGREIVGVADAFNRRVHAAESRNASAIEQVGGEVARIAASVEHKLNRADSVQAQALEKLGGEIARITEKLAERIGSAERRNALAIDDVGEQVARVTERLNQRHERSSQELVDRIRQSEERTLRMLEEAREKIDSRLSEAQRKLEAAPPSPPPAQAPAPVATAQRPVPPAASPFEDNYFSQAASFSTSEDEADAFDAPPAPARSFEVAEFPAAEPEEPAFAHDDYAIADGFEPESPRYEVEPEVSDFAPAEPSRPMSTRDIIEQARAAARAAAASEGKGGKAKSAKKEKASKASGSLFSGFGGFSTKKSKARL", "values": [{"measurement": "IC50 of the repression of the ADP production rate of 7.5 μM PleC PAS AB-HK with 1000 μM ATP (coupled enzyme assay), PodJ(1–635) 0-7.5 μM", "setting": "PleC PAS AB-HK", "result": 1860, "unit": "nM"}, {"measurement": "binding result", "setting": "[1]", "result": "binds"}]}]}
